Molecular target: T1, T-cell protein tyrosine phosphatase, 45 kDa form (TC45) (UniProt P17706-2 1-387)
T1 sequence (looked up): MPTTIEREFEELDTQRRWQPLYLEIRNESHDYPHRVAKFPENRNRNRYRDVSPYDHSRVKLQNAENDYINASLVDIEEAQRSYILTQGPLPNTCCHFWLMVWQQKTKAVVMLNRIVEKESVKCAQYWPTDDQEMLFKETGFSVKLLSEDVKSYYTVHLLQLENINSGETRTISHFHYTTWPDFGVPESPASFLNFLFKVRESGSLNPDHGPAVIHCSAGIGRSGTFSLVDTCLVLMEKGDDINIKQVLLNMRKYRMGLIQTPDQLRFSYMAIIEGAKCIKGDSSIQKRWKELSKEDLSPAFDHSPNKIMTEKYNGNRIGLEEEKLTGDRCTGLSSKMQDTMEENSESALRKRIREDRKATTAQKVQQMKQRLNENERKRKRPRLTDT
Test: cell-based or functional assay

B1: α1-cyt peptide (α1 cytoplasmic specific sequence lacking the conserved domain, RPLKKKMEK) (peptide)
peptide: RPLKKKMEK
In the case of B1, the “activation of recombinant TC45 in DiFMUP phosphatase assay by 10 μM α1-cyt peptide” value is reported as 2.4 fold.
